Measured values reported in the domain aggregation screens of Martell et al. (2025).

Test: soluble fraction after stress (log2 fold change); higher = more stays soluble; pooled small domains, quantitative proteomics
Details: stress: 50 degC
Method in brief: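 Custom libraries of small protein domains were pooled and measured in a high-throughput format, with quantitative proteomics as the read-out. Each library was stressed at 50°C. The value is the log2 fold change in the amount of each protein that stays soluble after stress, used as a measure of aggregation propensity; higher values mean more of the protein stays soluble.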

Sequence | soluble fraction (log2)
HMQLTVAVLIKNISKGQVISQGFLGFEARPERQIRGAYTNISEVLGRKAKSNIAVGTILKARHLDT | -2.94
HMQTQYIVDTKTTLLVRTGPGKSNSQFGRLKNGETINVYAIKNGWAEISYNGKTGYVSEQYIKLA | -3.12
HMYPGQILEIYLDEIKRLYLNGLSSADIFAEIKEGSIPSVKKAIRSMKDGSAPVKITEAEESTRIAPS | -0.441
HMAPRKNIRLLRAAQDKAAAEGDHETVDAIRGQIAALIETLPVQYREEYLLQEKGRENGLKLAIENAAK | 0.423
HMVGEYTVKKGDTLWKIAGQTLGSPLRYAEIYELNKDVIEEAALGRGKKNSSNGHWIFQGTVLKIPA | -0.00974
HMPELSITDADIIVAGGRGMGSAENFGLIRELAGLLGAAVGASRVVVDAEWVDQKHLIGQTGK | -0.112
HMTGLSNFEFNQIKLDLMHELTQTPLRLTDLVNRITSFENEKTITVIRFLVDEGILLLKDDTLSVAKID | -0.542
HMPQFDRQAFGQRLRLLRDYREMTQQQVANFLNVDRSTYSYYENGKTEPSITVLMRMAELFSVTLDSLLNM | -2.83
HMLSTGQLIRYYRKRAGMTQAELAEEVEMSEPGIRNYELGNRTPSKAQLSAIARGLGIEPEALI | -0.48
HMGPPLISLDDGLAKGFGVGVGDTLTINILGRRITATIASLREIDWQSLRFDFAVVLSPGVLEGA | 0.0913
HMNSRQPEEEALFELLAKNPYSDEQLEEIRIAIGSGISYKDVLVIADIKNTAKQMKKLRLKFTKDTG | -0.122
HMDPSHGESRENLDIMRIIDETHLEYPSWGYRKMTDHLRANHGYTINRKRVRRLMRLMDIIALFPG | -1.47
HMNRTKYYDFEGHPAKVVRLTLPVYLNKIGDEVVVYDSQKFAREASPISESQYNRMVAEIFQP | -0.354
HMEEHSLRKQEMLRIIEALEQLTPKEKTVVVLYYFKGVLFKDIAMLLDVTEGRISQLHTAAMGRLKKLMD | -0.0471
HMEKKSKLVLAVLQGSDSDNTIRNLNERGFMVTVLSSTGGFLKKKSTTVMIGVEEDRLEEALDVLQKYAG | -0.295
HMKKVIEFKDVSFAFEKKPILQDFNLLVQNKDRIGIVGDNGVGKSTLLNLIAERLQPQSGQVII | 0.00568
HMDSGLEQAKTAALENAELETSQVTFIKAELDYDDGKKVYEIEFVTSAMKYEYQVKADDFSILEMSKETIE | -0.39
HMIERLVEFVHTLRHSGVRVSMAEAMDAAEALRHTPITERQIFKTALQSVLVKEHQDIPAFDAAFERFFL | -1.54
HMQENFYMILESEERRVLDVLVADQPESVATFLKLVSPFPNYKIILEHINEKALDFYEETVI | -0.303
HMINSFDYLQAIFTELMKSQSKMTNQDAAKRLFMQGKVAVSNRDREGLRMVLAQLVTLLPKEELGGLSTVS | 0.0921
HMDYNSYGLTERELELVDYVLKGYSRKEMAEASGLKVNTIGSYMKKIYRKLNIHNRTELKERFI | -0.37
HMKKTAAKVLGESEGKPVTVQSGRYGPYVQLGSIRATLPKDLEQDDVTLDRALELISAKAERAGK | 0.122
HMRPQIAIDAIQALSLIMRTENKEDPTYLESRRVVSDAVAKRLSLNPTDLNRAWSRAPRDHQIAVLSALTQ | -0.853
HMLTIQNYFNQVKNIDWEQVPAALSKGHQLVEGASQNNWSAYHSNANIQRVVEAYFQKLNDYLEKN | -0.191
HMHYELTPDAEKQLSALGLTAELVERILEEANDRRPIPGTNRTVYSLHGYSVEFSNTNHKIVSVRKG | -0.219
HMDEPGTGFKWREDVLLRVMEANGIDTSHRDDFVRHAVKFDNDDNLYLKKAEIEDAAAAWVSEHS | 0.0272
HMGKLGENIKRIREGMGLSQRQFGELIGKSDSQIWSYENDRTDILASTLYKIAAVANVDFNNLMAGIIP | -0.925
HMSVAVKAPLQGTVMKVNVKPGDTVTKGAPVAVIEALKMENDVPAPQDGVVASVDVKSGDSVKTDQVLLTL | 0.182

Sequence | soluble fraction (log2)
HMVPHTTSMVAEVQERLFNLNYDPGPINGRMDQATITAITRFQRNFSLPQTGQIDEGFLNTLRDARL | -0.981
HMPTAGYMTVTPDRVKEGQQFLATLRPPYVLKADGLAAGKGVLILPELEEAQRELEEMLGGFLGELSVNR | -0.0813
HMPLAQRFGLTVAQARVLDLLAEGRSNRQIGELLGLTEGTVKIHVSAIMKAMGVSNRAEAALMANRKR | -0.717
HMQDGTILPGQKTAIRSLATSGGYDSQDLDTYLATTYGKSIDGLTRTEGADVIKAFQAGTVAK | 0.233
HMEDSSSILNRMRKLIALLNRASEAYYKENKEIISNFEYDRLYDELLGLESRSNTVLSGSPTYKV | -1.63
HMFPASQPVPTDLNQIVRAGLEVFSGRLEGIDVRVSLEPELPRVNVDPEHFKRIVVNLVDNAAEAMQNS | -0.0549
HMNGLDSVLRNWARQTLASGGENLLGDLTDHVTRLIISEALIMTGGNRTRAAELLGLSRPTLLAKMDKLNL | -1.45
HMSGSLLQTRQRLQALTDLGHYKGDLAAAWGPEAIEALKRAQAALGITVDGKWGPETEDAIQVALQAQT | 0.0305
HMTANPSTEEIMARVEAIPLPIKRLPPGQIVQAQTVAATVLRSNPGLDLAKAWKLAYATVTGQE | -0.0416
HMQDYYTQSDFARYLEDKGIHFPQNKIAVYRKRGKFPKEDLVVAGTPYWSKYTVESFAKHLLEQQN | 0.0719
HMSEQIALQFAKAKQHHTGIALKGIEALELRYKGYTGKEIAALYHTSPKSVFSWISRAKQKLRQN | -0.375
HMGQPAVSSRDVAEQFGKEHRNVIQSIKNLIAENSALTFMFIEDTYTAGTGKKYPMYYMNRDGFTLLA | 0.224
HMRLPNGYGSITKLSGKRRKPFMVRITTGYDNEGKQLMSVLGYYATRTEALAVLAEYNKNPYNPI | -2.57
HMSRQAPIGHRIRGRRKDIGMTQNALAKAAGISPSYLNLIEHNRRSIGGGLLMRIAAILDIHPHTL | -2.23
HMSSRLEIEITSKIDDLSHTWRAVGAKQPKGNIKSSLLPSGVKVGETFRVEADFLLDGIEIVSVLPP | -1.44
HMQAMDYEGFKKEILKMSDIDLSLYKEKQMKRRIDSLIRKNGYEHYEDYVQALKQDSGLYNEFINYLTI | 0.439
HMSENEIDELRRRFAREAMALMERKGEEVSRTRLAAELSVARARIDAVFPEESDLLEAVTAEWFA | -0.562
HMNDYIGVDRAKEIALNHARMNESDVQFAKAKLENDDGVVEYEIEFYFGRTEYDYTIDAVSGNIIEYDVEY | -1.05
HMHHDQQQITAELARIARNGLPGLTADNAIISRLDALNLLINIHDDRGADATPLRGLLPAIADELLRLT | -0.273
HMDTRKKLEQIFKLFDKTGTGMVNIDEFKSVLKLFMEEIDEKFGNYFIAYFDENGDGKIEFEEFADVVL | -0.0635
HMGPNSVPDLRGKSLRQAMKMVNDLELKAIFEGEGIVVGQVPAPGKPVPETKILKITLSLEPY | -0.109
HMLGYGEQEREAQKYLEMHTAFQADPSLQKMYLPENQYALISKVMEMTGIKNVKSYLTPPNEL | -0.0174
HMRSKTSYAVWTPIQIDAGSQMQALQSKGFNTVLMEGGISVGIRSDKAQAQALLNRLQGAGFTGQLREVN | -0.183
HMGVKIELNENEQAIFAAMQKQVEAVLPDLRAQFADMSNKAWDNSVKTLTKNNLLKVSKEAEILFIRL | -0.718
HMQSVSANSVQKQLADIIDGEDKTHPLSDRELTEKLVAQGVQISRRTVAKYREAMGIPGASGRKQ | 0.072
HMSESIFTLYGDEKFEKIRYYLKERGFITLDALARFDFDELLFVPGVSELLISEAKQLFSRYDTSSLAAKE | -0.17
HMPKNEHETKAIGNQTGGRVFLFLNTDNINRDYNMYISKQVKFVREISQEYYGKVAVFEDLYGNLWDLIE | 0.149
